Experimental data reported in the supplement of paper PMC9732359.
± gives the uncertainty stated by the source.

experiment: protein stability index of a GFP-peptide fusion (yeast GPS) (PSI 1-4); higher = more stable; sorted into four equal gates, so the index is relative within each strain; conditions: pdr5∆
Outline: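 Plasmids in a pooled yeast library fused tiled 17-residue yeast protein peptides downstream of GFP and also expressed Cherry. Mid-log cultures grown without leucine were sorted into four equal gates by GFP/Cherry fluorescence ratio. Each gate's plasmids were PCR-amplified and Illumina-sequenced, and reads were matched to strains by barcodes. The protein stability index is derived by multiplying each gate's read frequency by its gate number and summing the results.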

Sequence | protein stability index
DLSVTPQKSSSKGFVFN [YAR002W/NUP60] | 3.06 ± 0.12
DLSYIEFLFESLKNDLP [ECM29] | 2.65 ± 0.14

same assay, conditions: san1∆

Sequence | protein stability index
CIIFITFEFINIAFDAH [YML031W/NDC1] | 1.38 ± 0.085
CIPLVGISVPFHSTYLM [FAS1] | 1.27 ± 0.069
CITKQDGFKIYDNEKTA [PUP2] | 3.1 ± 0.05
CKQFPKLSCIQLNCIDT [SRB8] | 1.52 ± 0.043
CLFTKCLEDPEKPFNEN [POP4] | 2.7 ± 0.2
CLNTQRGDSTETSSFGS [RRI1] | 3.37 ± 0.084
CLTGTVAARMFHILLKL [ECM29] | 2.74 ± 0.058
CLTKFQDEEQTEHLTEL [YCG1] | 3.46 ± 0.075
CNALIHIKFSAGTEANA [SRB4] | 2.19 ± 0.054
CNQMENLLESITKLLEI [YCS4] | 2.9 ± 0.061
CRNILGVTSLIKNLGLP [RPP1] | 1.23 ± 0.092
CSIEPIAAKLINSGLYS [YML103C/NUP188] | 1.67 ± 0.12
CTFSMEPYHFISNYNTK [SRB8] | 1.5 ± 0.079
DADKLSFNCENFFQAPQ [YML031W/NDC1] | 2.36 ± 0.06
DAFVATAFATEFFVQVL [DLS1] | 3.12 ± 0.077
DAMVTRTPVIISLRNNH [SMD2] | 1.43 ± 0.12
DANLLGAEVLIKGSKLS [COR1] | 2.63 ± 0.12
DATNTSYKMIQLDAYGE [SWP82] | 3.25 ± 0.057
DAWVSAAHYNRERIKRG [PRP8] | 2.6 ± 0.062
DCLSFAPTLSQTYINQE [SSN2] | 2.77 ± 0.087
DCMIAHGAASFLKERLM [RPB2] | 2.13 ± 0.1
DCNSALDQLLVLEKKTR [RPN5] | 2.22 ± 0.058
DDDDDDDDEVDYSEIQR [DSN1] | 3.41 ± 0.044
DDDINWQELARSTDEFN [RPT5] | 3.11 ± 0.048
DDDISDDEEDEIEENCL [RPN4] | 3.14 ± 0.08
DDDTFSDREMAALIASK [RPN2] | 1.32 ± 0.12

Sequence | protein stability index
DDETPSCEVEEIGLLGG [SNU114] | 3.26 ± 0.07
DDHSQVINPQQLLKGLS [DSN1] | 3.03 ± 0.057
DDKVSVVEKEKIESLAG [UBP6] | 2.89 ± 0.17
DDKYGRKFALEKLYIFY [SRP72] | 2.4 ± 0.061
DDLKQKKEELVEIAYHK [RPO31] | 3.08 ± 0.14
DDNDVPGPLPDTDSKPS [YLR018C/POM34] | 2.76 ± 0.11
DDQCMLITTYSKLSKNI [SIN4] | 1.87 ± 0.2
DDSANIVNVNFMKSVIR [DIS3] | 3.06 ± 0.069
DDSTKFQLVNDVMDELI [SIR3] | 3.47 ± 0.1
DDTWYNLTEFVQMDKIR [AAR2] | 2.79 ± 0.061
DEATVPNTRDAESEAIT [SWI3] | 3.18 ± 0.066
DEDDDLDEDDVNADDDD [RPB4] | 2.09 ± 0.16
DEDESQNIAQSSNQSAP [HRT1] | 3.14 ± 0.051
DEEGIFSRFVDQFIRHV [YCG1] | 2.99 ± 0.085
DEGLLNMVSLRGRNDTL [GRR1] | 2.51 ± 0.097
DEIYIPINGNEAESQWY [CSI1] | 3.11 ± 0.07
DEKNKNNNEDNENNNNS [MED2] | 3.17 ± 0.062
DELILPLPSHALTVQEV [YDL116W/NUP84] | 2.15 ± 0.057
DESYARAYRIIRAHQTE [QCR7] | 3.14 ± 0.22
DETKGFDDNDSGNNYND [MED2] | 3.13 ± 0.053
DEYQAAVEQRKKEKLDS [DPB4] | 3.38 ± 0.11
DFDGDEMNLHVPQSEET [RPO21] | 2.98 ± 0.045
DFISPELIIDKVTCSSN [MED1] | 1.82 ± 0.22
DFLRYINIKYLRLDGHT [SNF2] | 1.4 ± 0.14
DFVRNELNDIDTKIDQV [SMC3] | 3.12 ± 0.14
DGFKIYDNEKTAELIKE [PUP2] | 3.15 ± 0.061

Sequence | protein stability index
DGGLEEETDEVSSESSD [SIR3] | 3.2 ± 0.089
DGIVVKNAVVRSKFGGD [ARP7] | 3.16 ± 0.25
DGKEDVEKGTPLGKILL [SME1] | 3.53 ± 0.053
DGLEKAAFNGVTFKDKY [FAS2] | 1.85 ± 0.14
DGMDAAHIEKQSLDTIG [RPO21] | 3.24 ± 0.093
DGNNEIFTCQIMNLITN [RPN4] | 2.35 ± 0.2
DGTAKEVGDEADNTKDK [MED4] | 3.34 ± 0.088
DHDDSTDDADDHINWEH [NSL1] | 3.26 ± 0.056
DHHPEGLSAREAVKQAA [PRE10] | 2.67 ± 0.082
DHILFTKTFIFIYKKVL [SRB8] | 1.15 ± 0.13
DHKFPIRENKVTYSRVS [BRN1] | 3.01 ± 0.097
DIEFINSLLTIVWRFIS [RPC34] | 2.51 ± 0.21
DIEIVRVNKNAPAVELH [FAS2] | 3.24 ± 0.091
DIENKEEEYDETHETNI [YAR002W/NUP60] | 3.42 ± 0.083
DIFGDSELFDEWFEQNN [ISW2] | 1.31 ± 0.15
DIGKGAETTFLQDVIAL [RPC53] | 2.38 ± 0.11
DIIMNPHGFPSRMTVGK [RET1] | 2.79 ± 0.049
DIINAVNEIMYKCTAAM [MTW1] | 2.84 ± 0.11
DIKAAVDDSMELCGQIR [ITC1] | 2.21 ± 0.17
DILLRLCVLWDDLQSSV [YCG1] | 1.72 ± 0.087
DINTVNTNLMNGVNVQI [GRR1] | 2.98 ± 0.074
DIPPPAIMKPYYLWTGK [RPO31] | 2.9 ± 0.074
DIQAMCTEAGLLALRER [RPT2] | 3.33 ± 0.047
DIQLKNLFPLKPKMLPI [SRP68] | 2.4 ± 0.058
DITTSIMDNFLERTAIE [RPN1] | 3.22 ± 0.086
DIVQYHLELYTSQYGTP [PRE3] | 1.77 ± 0.07

Sequence | protein stability index
DIWQSRDQGNDSLNDDL [YIL149C/MLP2] | 3.65 ± 0.17
DKEKEENNDDALDLDLD [MED4] | 2.95 ± 0.063
DKFSPEDGLGPLMAKSV [ARP7] | 2.66 ± 0.13
DKITLHDEKTLAPSKHQ [SIR4] | 2.44 ± 0.2
DKKNKRLKFGHRLIATH [SNF2] | 1.85 ± 0.091
DKLICSIDPPGCVDIDD [DIS3] | 2.78 ± 0.068
DKNKLLLLAAQIVSYCS [SSN2] | 2.05 ± 0.06
DKSTTQLRKEIQLLDEN [MED11] | 1.71 ± 0.17
DKTLRLWDVATGETYQR [ASC1] | 2.18 ± 0.19
DKVDDYTPEEVDKIERE [SMC4] | 1.32 ± 0.22
DKVSSCFPQYVNSKQGA [NNF1] | 2.11 ± 0.12
DLCDVVESKFTEKIKSM [RPC19] | 3.33 ± 0.1
DLENSPLKTELEANGRS [SSN2] | 3.17 ± 0.096
DLEWQELTSFSSQPLEP [DSN1] | 2.98 ± 0.054
DLKFKRHKNKHIQGFPT [DSN1] | 1.75 ± 0.12
DLKIEKLVLNISVGESG [RPL11A] | 2.52 ± 0.09
DLKNTRMKSITSTSQKI [SNF5] | 3.17 ± 0.045
DLLKLVHLSNGYKMIPG [FAS1] | 2.14 ± 0.064
DLNKENKLLRRKLMEME [YIL149C/MLP2] | 3.33 ± 0.11
DLSANQRETMKERKLRE [SMC1] | 2.96 ± 0.091
DLSRIMDWLDNWGRKEH [ITC1] | 3.48 ± 0.14
DLSVTPQKSSSKGFVFN [YAR002W/NUP60] | 2.88 ± 0.057
DLSYIEFLFESLKNDLP [ECM29] | 2.78 ± 0.083
